Laboratory results from publication PMC5414047.

Columns and labels:
[1] = target: TβRII (TGF-β type II receptor) (UniProt P37173); test: Flag-FAF1 co-IP, immunoblot; conditions: reference: wild type; sites S582
[2] = target: VCP (valosin-containing protein) (UniProt P55072); test: Flag-FAF1 co-IP, immunoblot; conditions: reference: wild type; sites S582

In the case of “FAF1 (FAS-associated factor 1) (from UniProt Q9UNN5) S582A”, the “binding against the reference” value [1] is reported as “stronger” and the “binding against the reference” value [2] is reported as “stronger”.
